Measurements from patent US20170058032A1 (published 2017).

Target: T1, extracellular domain of human CD79b fused to Fc (huCD79becd-Fc) (UniProt P40259 29-159)
T1 chain: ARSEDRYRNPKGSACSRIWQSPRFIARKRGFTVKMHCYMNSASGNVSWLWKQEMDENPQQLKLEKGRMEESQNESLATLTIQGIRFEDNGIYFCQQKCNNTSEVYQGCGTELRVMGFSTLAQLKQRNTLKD
Assay: Biacore; Fab

Kd: 200 nM
B1: MA79b Fab (Fab, V domains shown)
VH: EVQLQQSGAELMKPGASVKISCKATGYTFSSYWIEWVKQRPGHGLEWIGEILPGGGDTNYNEIFKGKATFTADTSSNTAYMQLSSLTSEDSAVYYCTRRVPVYFDYWGQGTSVTVSS
VL: DIVLTQSPASLAVSLGQRATISCKASQSVDYDGDSFLNWYQQKPGQPPKLFIYAASNLESGIPARFSGSGSGTDFTLNIHPVEEEDAATYYCQQSNEDPLTFGAGTELELKR
